Source: paper doi:10.1101/2021.11.08.467404
Blank lines part the entries; values can stand above or below the substance they belong to.

How the values were obtained:
[1] = biological target: microtubules polymerised from porcine brain tubulin (porcine) (UniProt P02550); assay: FRAP of fluorescent protein on immobilised microtubules
[2] = biological target: microtubules polymerised from porcine brain tubulin (porcine) (UniProt P02550); assay: single-molecule TIRF microscopy on immobilised microtubules
[3] = biological target: microtubules polymerised from porcine brain tubulin (porcine) (UniProt P02550); assay: TIRF microscopy of fluorescent protein on immobilised microtubules

Chain of UniProt P02550 (P02550 whole entry): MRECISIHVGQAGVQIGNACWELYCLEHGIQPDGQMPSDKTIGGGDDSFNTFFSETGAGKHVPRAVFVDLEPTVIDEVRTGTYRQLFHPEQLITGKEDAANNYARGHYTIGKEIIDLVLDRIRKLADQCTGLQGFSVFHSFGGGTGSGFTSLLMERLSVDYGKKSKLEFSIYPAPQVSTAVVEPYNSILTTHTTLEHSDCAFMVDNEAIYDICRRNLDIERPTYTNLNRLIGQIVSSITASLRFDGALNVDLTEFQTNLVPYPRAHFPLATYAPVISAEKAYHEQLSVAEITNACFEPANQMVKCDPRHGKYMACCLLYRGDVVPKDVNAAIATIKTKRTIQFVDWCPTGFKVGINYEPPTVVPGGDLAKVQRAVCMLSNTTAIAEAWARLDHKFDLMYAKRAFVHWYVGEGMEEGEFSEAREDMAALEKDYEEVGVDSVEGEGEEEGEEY

fold turnover (FRAP) outside against inside envelopes [1]: 4 fold
Substance: GFP-MAP2c (natural protein)

fold increase of dwell time inside GFP-MAP2c envelopes against outside [2]: 3 fold
Substance: TMR-MAP2c (natural protein)

fold dwell time of single molecules against MAP2c [2]: 2 fold
Substance: TMR-MAP4 (full-length human MAP4, isoform 1) (from UniProt P27816 1-1152) (natural protein)

landing rate (with 600 nM tau-mCherry) [3]: 0.23 μm^-1s^-1
Substance: kinesin-1-GFP (from UniProt P33176 1-963) (natural protein)
